The results in this text go back to publication PMC4062093, “The structure of a purple acid phosphatase involved in plant growth and pathogen defence exhibits a novel immunoglobulin-like fold” (Iucrj, 2014).

Assay [1] deals with PPD1 (diphosphonucleotide phosphatase/phosphodiesterase) (Lupinus luteus, UniProt Q8VX11). Conditions: active site, bidentate, bridging Fe and Mn; crystals from acetate pH 5.2 and Morpheus solution pH 6.5.
In assay [2] the target is Diphosphonucleotide phosphatase/phosphodiesterase (PPD1) from yellow lupin (Lupinus luteus) seeds (yellow lupin (Lupinus luteus)). The assay can be described thus: crystal structure; hanging drop at room temperature, 5 mg/ml PPD1 in 20 mM sodium acetate, 0.5 M NaCl pH 5.2 with Morpheus solution 39 (pH 6.5); asymmetric unit a homotrimer, hexamer generated from crystallographic symmetry; 1.65 Å.

For assay [3] the target is unchanged. Briefly: SAXS; PPD1 in solution, 1-4 mg/ml, SWING beamline at SOLEIL; crystallographic hexamer and trimer models fitted with CRYSOL, ab initio shape reconstruction with GASBOR.

Sequence of PPD1 (diphosphonucleotide phosphatase/phosphodiesterase) (Q8VX11 27-615): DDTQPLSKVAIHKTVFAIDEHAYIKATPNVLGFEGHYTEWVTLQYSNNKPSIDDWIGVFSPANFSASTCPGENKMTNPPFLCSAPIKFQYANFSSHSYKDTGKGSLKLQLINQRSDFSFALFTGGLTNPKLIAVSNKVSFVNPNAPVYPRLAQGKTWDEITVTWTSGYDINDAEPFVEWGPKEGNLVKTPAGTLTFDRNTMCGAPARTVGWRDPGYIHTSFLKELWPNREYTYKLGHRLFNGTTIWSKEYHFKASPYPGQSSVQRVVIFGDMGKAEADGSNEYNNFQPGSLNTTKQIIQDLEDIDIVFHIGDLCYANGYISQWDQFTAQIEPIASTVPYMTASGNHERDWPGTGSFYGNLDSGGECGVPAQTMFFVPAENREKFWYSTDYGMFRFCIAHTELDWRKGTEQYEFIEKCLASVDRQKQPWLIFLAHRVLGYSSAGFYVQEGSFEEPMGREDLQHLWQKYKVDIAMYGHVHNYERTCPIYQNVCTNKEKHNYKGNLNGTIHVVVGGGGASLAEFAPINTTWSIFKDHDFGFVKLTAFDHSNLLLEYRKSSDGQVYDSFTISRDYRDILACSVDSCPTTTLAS

`O=P(O)(O)O` [phosphate]: the “X-ray crystal structure, 1.65 A” value in assay [1] is on record as “active site of PPD1 with a phosphate ion bound to both of the metal atoms”.

For the molecule “Diphosphonucleotide phosphatase/phosphodiesterase (PPD1) from yellow lupin (Lupinus luteus) seeds (enzyme)”, the stoichiometry N in assay [2] and in assay [3] was 6 each time.

A word on the stoichiometry N: it is the number of molecules, sites or subunits per partner or assembly.
